Measured values taken from patent US20200024330A1.

Assays:
Experiment in all cases: cell-based or functional assay
[1] = biological target: aMLV envelope protein (on pseudovirus, negative control) (aMLV)
[2] = biological target: HIV-1 92UG024 Env (on pseudovirus) (HIV-1)
[3] = biological target: HIV-1 MGRM-D-018 Env (on pseudovirus) (HIV-1)
[4] = biological target: HIV-1 MGRM-A-010 Env (on pseudovirus) (HIV-1)
[5] = biological target: HIV-1 MGRM-C-026 Env (on pseudovirus) (HIV-1)
[6] = biological target: HIV-1 92TH021 Env (on pseudovirus) (HIV-1)
[7] = biological target: HIV-1 CMU02 Env (on pseudovirus) (HIV-1)
[8] = biological target: HIV-1 MGRM-D-001 Env (on pseudovirus) (HIV-1)
[9] = biological target: HIV-1 NL43 Env (on pseudovirus) (HIV-1)
[10] = biological target: HIV-1 93IN905 Env (on pseudovirus) (HIV-1)
[11] = biological target: HIV-1 JRFL Env (on pseudovirus) (HIV-1)
[12] = biological target: panel of HIV-1 pseudoviruses of Table 52
[13] = biological target: HIV-1 APV13 Env (on pseudovirus) (HIV-1)
[14] = biological target: HIV-1 APV6 Env (on pseudovirus) (HIV-1)
[15] = biological target: HIV-1 MGRM-C-027 Env (on pseudovirus) (HIV-1)
[16] = biological target: HIV-1 94UG103 Env (on pseudovirus) (HIV-1)
[17] = biological target: HIV-1 93UG077 Env (on pseudovirus) (HIV-1)
[18] = biological target: HIV-1 MGRM-AG-005 Env (on pseudovirus) (HIV-1)
[19] = biological target: HIV-1 MGRM-C-028 Env (on pseudovirus) (HIV-1)
[20] = biological target: HIV-1 JRCSF Env (on pseudovirus) (HIV-1) (UniProt P20871)
[21] = biological target: HIV-1 APV17 Env (on pseudovirus) (HIV-1)
[22] = biological target: HIV-1 92UG005 Env (on pseudovirus) (HIV-1)
[23] = biological target: HIV-1 Env of isolate MGRM-C-026 (HIV-1)
[24] = biological target: HIV-1 Env of isolate JR-CSF (HIV-1) (UniProt P20871)
[25] = biological target: HIV-1 Env of isolate 92BR020 (HIV-1)
[26] = biological target: HIV-1 Env of isolate 94UG103 (HIV-1)

B1: PGT-136 (5329_C19; 5366_P21) (antibody, V domains shown)
VH: QLQLQESGPGLVKPSETLSLTCTVSGGSMRGTDWGENDFHYGWIRQSSAKGLEWIGSIHWRGRTTHYKTSFRSRATLSIDTSNNRFSLTFSFVTAADTAVYYCARHKYHDIFRVVPVAGWFDPWGQGLLVTVSS
VL: EIVMTQSPPTLSVSPGETATLSCRASQNVKNNLAWYQLKPGQAPRLLIFDASSRAGGIPDRFSGSGYGTDFTLTVNSVQSEDFGDYFCQQYEEWPRTFGQGTKVDIK
- IC50 (ug/ml), pseudovirus neutralization [1]: > 10 µg/mL
- IC50 (ug/ml), pseudovirus neutralization [2]: 0.0915 µg/mL
- IC50 (ug/ml), pseudovirus neutralization [3]: > 10 µg/mL
- IC50 (ug/ml), pseudovirus neutralization [4]: > 10 µg/mL
- IC50 (ug/ml), pseudovirus neutralization [5]: 0.0065 µg/mL
- IC50 (ug/ml), pseudovirus neutralization [6]: > 10 µg/mL
- IC50 (ug/ml), pseudovirus neutralization [7]: > 10 µg/mL
- IC50 (ug/ml), pseudovirus neutralization [8]: > 10 µg/mL
- IC50 (ug/ml), pseudovirus neutralization [9]: > 10 µg/mL
- IC50 (ug/ml), pseudovirus neutralization [10]: 0.0135 µg/mL
- IC50 (ug/ml), pseudovirus neutralization [11]: > 10 µg/mL
- % neutralized (viruses of the panel) [12]: 18%
- median IC50 (ug/ml), pseudovirus neutralization [12]: 0.05 µg/mL
- IC50 (ug/ml), pseudovirus neutralization [13]: > 10 µg/mL
- IC50 (ug/ml), pseudovirus neutralization [14]: > 10 µg/mL
- IC50 (ug/ml), pseudovirus neutralization [15]: > 10 µg/mL
- IC50 (ug/ml), pseudovirus neutralization [16]: > 10 µg/mL
- IC50 (ug/ml), pseudovirus neutralization [17]: > 10 µg/mL
- IC50 (ug/ml), pseudovirus neutralization [18]: > 10 µg/mL
- IC50 (ug/ml), pseudovirus neutralization [19]: > 10 µg/mL
- IC50 (ug/ml), pseudovirus neutralization [20]: > 10 µg/mL
- IC50 (ug/ml), pseudovirus neutralization [21]: > 10 µg/mL
- IC50 (ug/ml), pseudovirus neutralization [22]: > 10 µg/mL

B2: PGT-135 (5343_B08; 5344_E16) (antibody, V domains shown)
VH: QLQMQESGPGLVKPSETLSLSCTVSGDSIRGGEWGDKDYHWGWVRHSAGKGLEWIGSIHWRGTTHYKESLRRRVSMSIDTSRNWFSLRLASVTAADTAVYFCARHRHHDVFMLVPIAGWFDVWGPGVQVTVSS
VL: EIVMTQSPDTLSVSPGETVTLSCRASQNINKNLAWYQYKPGQSPRLVIFETYSKIAAFPARFVASGSGTEFTLTINNMQSEDVAVYYCQQYEEWPRTFGQGTKVDIK
- IC50 (ug/ml), pseudovirus neutralization [1]: > 10 µg/mL
- IC50 (ug/ml), pseudovirus neutralization [2]: 0.0139 µg/mL
- IC50 (ug/ml), pseudovirus neutralization [3]: 0.0433 µg/mL
- IC50 (ug/ml), pseudovirus neutralization [4]: > 10 µg/mL
- IC50 (ug/ml), pseudovirus neutralization [5]: 0.0123 µg/mL
- IC50 (ug/ml), pseudovirus neutralization [6]: > 10 µg/mL
- IC50 (ug/ml), pseudovirus neutralization [7]: > 10 µg/mL
- IC50 (ug/ml), pseudovirus neutralization [8]: > 10 µg/mL
- IC50 (ug/ml), pseudovirus neutralization [9]: 6.79 µg/mL
- IC50 (ug/ml), pseudovirus neutralization [10]: 0.0183 µg/mL
- IC50 (ug/ml), pseudovirus neutralization [11]: > 10 µg/mL
- % neutralized (viruses of the panel) [12]: 54%
- median IC50 (ug/ml), pseudovirus neutralization [12]: 0.11 µg/mL
- IC50 (ug/ml), pseudovirus neutralization [13]: 0.545 µg/mL
- IC50 (ug/ml), pseudovirus neutralization [14]: > 10 µg/mL
- IC50 (ug/ml), pseudovirus neutralization [15]: > 10 µg/mL
- IC50 (ug/ml), pseudovirus neutralization [16]: > 10 µg/mL
- IC50 (ug/ml), pseudovirus neutralization [17]: > 10 µg/mL
- IC50 (ug/ml), pseudovirus neutralization [18]: > 10 µg/mL
- IC50 (ug/ml), pseudovirus neutralization [19]: 2.16 µg/mL
- IC50 (ug/ml), pseudovirus neutralization [20]: 0.113 µg/mL
- IC50 (ug/ml), pseudovirus neutralization [21]: > 10 µg/mL
- IC50 (ug/ml), pseudovirus neutralization [22]: > 10 µg/mL

B3: 4869_K15 (antibody, V domains shown)
VH: QVHLQESGPGLVTPSETLSLTCTVSNGSVSGRFWSWIRQSPGRGLEWIGYFSDTDRSEYNPSLRSRLTLSVDRSKNQLSLRLKSVTAADSATYYCARAQQGKRIYGIVSFGEFFYYYYMDAWGKGTPVTVSS
VL: SLNPLSLAPGATAKIPCGERSRGSRAVQWYQQKPGQAPTLIIYNNQDRPAGVSERFSGNPDVAIGVTATLTISRVEVGDEADYYCHYWDSRSPISWIFGGGTQLTVL
- Primary Neutralization Index (B cell culture well 4869 K15) [23]: 104
- Primary Neutralization Index (B cell culture well 4869 K15) [24]: 2.1
- Primary Neutralization Index (B cell culture well 4869 K15) [25]: 3.9
- Primary Neutralization Index (B cell culture well 4869 K15) [26]: 1.5
